Drawing on US20230212549A1, “COMPOUNDS COMPRISING A […] LIGAND AND USE THEREOF” (priority 2021, published 2023), this text covers % Inhibition of Specific Binding for two molecules.

What all share (test): radioligand displacement (agonist radioligand), 10 µM
(Displacement assays read how much labelled ligand stays bound in the presence of the test substance.)

Assay [1] has as its target beta 1 (h) (human), P08588. The note with it: remark: other sources report otherwise.
The next assay concerns the target T1, CB1 (h) (human), P21554.
T1 chain: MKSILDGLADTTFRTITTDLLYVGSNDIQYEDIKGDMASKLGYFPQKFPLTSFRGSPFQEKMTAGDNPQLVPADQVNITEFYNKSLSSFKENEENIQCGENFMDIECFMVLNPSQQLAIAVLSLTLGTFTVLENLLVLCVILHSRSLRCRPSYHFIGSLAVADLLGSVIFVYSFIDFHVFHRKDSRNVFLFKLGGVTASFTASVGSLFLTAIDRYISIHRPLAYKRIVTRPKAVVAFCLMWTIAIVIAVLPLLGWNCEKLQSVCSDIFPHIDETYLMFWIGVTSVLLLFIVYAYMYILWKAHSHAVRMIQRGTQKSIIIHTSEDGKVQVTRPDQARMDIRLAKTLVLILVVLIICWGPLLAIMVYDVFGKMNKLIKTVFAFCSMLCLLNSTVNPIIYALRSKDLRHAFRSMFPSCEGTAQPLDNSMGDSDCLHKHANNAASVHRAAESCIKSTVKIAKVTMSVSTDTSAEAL
The note with it: remark: other sources report otherwise.

The next assay addresses V1a (h) (human), P37288. The note with it: remark: other sources report otherwise.
In the next assay the target is CB2 (h) (human), P34972. The note with it: remark: other sources report otherwise.
CB2 (h) (human), P34972, sequence (P34972 whole entry): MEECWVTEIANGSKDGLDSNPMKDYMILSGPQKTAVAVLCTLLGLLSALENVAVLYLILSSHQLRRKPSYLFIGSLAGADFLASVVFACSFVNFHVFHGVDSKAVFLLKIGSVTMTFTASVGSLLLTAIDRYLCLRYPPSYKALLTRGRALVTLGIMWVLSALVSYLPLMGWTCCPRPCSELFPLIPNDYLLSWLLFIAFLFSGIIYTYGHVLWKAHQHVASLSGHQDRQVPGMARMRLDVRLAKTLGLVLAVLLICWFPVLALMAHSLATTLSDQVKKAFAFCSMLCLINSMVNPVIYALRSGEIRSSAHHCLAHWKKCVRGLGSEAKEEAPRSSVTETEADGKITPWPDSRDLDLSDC
Assay [2] addresses T2, CCK1 (CCKA) (h) (human), P32238.
T2 chain: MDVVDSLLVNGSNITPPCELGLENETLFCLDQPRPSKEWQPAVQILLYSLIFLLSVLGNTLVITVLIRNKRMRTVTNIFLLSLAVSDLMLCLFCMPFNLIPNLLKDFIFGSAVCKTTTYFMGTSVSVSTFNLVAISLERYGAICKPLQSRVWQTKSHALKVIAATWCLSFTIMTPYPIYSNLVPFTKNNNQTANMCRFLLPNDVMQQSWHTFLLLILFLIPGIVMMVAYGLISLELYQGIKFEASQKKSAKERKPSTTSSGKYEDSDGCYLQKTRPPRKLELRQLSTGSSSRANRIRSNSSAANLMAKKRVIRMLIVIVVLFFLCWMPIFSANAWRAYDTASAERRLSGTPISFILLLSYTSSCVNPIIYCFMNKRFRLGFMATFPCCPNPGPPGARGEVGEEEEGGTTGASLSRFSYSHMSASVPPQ
Conditions: remark: other sources report otherwise.

Another assay has as its target T3, D2S (h) (human), P14416.
T3 chain: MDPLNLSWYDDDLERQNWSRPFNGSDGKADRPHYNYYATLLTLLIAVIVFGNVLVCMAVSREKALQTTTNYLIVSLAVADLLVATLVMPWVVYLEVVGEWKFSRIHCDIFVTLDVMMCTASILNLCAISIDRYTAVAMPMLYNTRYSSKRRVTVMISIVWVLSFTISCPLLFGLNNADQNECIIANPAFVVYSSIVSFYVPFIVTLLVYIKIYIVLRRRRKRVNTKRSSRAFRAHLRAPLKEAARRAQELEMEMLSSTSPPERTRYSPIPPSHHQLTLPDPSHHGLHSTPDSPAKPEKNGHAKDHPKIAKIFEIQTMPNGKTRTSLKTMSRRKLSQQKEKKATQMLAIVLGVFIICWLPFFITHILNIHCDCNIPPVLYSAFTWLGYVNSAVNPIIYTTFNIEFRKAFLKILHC

The target of assay [3] is T4, 5-HT1A (h) (human), P08908.
T4 chain: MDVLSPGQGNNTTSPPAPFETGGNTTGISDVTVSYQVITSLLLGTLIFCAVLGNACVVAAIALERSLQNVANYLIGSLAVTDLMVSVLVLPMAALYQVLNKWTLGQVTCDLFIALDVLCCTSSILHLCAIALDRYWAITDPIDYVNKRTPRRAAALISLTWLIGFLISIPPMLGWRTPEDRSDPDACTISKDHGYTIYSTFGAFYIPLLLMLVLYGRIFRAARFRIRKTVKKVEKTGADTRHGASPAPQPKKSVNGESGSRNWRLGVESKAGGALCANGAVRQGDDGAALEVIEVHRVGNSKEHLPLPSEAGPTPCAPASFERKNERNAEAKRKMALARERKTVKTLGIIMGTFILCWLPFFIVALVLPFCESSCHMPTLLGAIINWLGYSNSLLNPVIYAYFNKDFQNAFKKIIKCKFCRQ
Conditions: remark: other sources report otherwise.

The target of assay [4] is T5, delta (DOP) (h) (human), P41143.
T5 chain: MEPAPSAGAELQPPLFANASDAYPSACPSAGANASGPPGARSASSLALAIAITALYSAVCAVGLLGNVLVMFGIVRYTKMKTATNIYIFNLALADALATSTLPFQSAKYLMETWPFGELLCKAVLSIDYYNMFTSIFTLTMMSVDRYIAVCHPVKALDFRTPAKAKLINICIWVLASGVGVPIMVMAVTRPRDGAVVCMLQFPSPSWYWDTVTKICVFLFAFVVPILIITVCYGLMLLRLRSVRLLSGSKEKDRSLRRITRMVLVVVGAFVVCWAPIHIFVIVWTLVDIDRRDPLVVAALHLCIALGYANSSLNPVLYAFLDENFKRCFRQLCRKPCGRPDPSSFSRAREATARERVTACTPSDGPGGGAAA
Conditions: remark: other sources report otherwise.

For assay [5], the target named is mu (MOP) (h) (human), P35372. Conditions: remark: other sources report otherwise.
mu (MOP) (h) (human), P35372, sequence (P35372 whole entry): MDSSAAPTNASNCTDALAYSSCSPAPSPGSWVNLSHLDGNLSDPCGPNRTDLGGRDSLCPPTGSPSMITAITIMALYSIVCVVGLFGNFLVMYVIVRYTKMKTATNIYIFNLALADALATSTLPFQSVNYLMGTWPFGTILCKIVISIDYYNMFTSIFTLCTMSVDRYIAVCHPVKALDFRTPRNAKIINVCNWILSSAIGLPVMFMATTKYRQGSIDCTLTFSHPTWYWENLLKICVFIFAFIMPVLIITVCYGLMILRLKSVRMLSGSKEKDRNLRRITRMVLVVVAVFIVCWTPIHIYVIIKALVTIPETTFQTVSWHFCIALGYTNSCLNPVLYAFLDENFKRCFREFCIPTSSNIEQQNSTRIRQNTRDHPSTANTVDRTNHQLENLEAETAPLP
The target of assay [6] is 5-HT2A (h) (human), P28223. The note with it: remark: other sources report otherwise.
5-HT2A (h) (human), P28223, sequence (P28223 whole entry): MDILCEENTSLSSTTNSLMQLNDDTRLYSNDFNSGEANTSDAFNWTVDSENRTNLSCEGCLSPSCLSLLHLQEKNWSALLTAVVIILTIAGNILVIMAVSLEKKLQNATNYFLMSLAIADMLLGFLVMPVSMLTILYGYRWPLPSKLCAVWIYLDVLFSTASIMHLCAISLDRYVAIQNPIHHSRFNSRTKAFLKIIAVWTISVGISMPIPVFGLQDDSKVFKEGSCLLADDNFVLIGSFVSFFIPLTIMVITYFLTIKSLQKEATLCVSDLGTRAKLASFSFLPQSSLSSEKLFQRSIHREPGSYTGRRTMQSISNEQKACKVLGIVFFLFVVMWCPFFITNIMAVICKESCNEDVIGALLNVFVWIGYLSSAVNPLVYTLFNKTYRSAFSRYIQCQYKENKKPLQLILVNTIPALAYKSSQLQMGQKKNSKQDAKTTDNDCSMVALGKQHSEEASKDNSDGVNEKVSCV
Substrate in assay [7]: N neuronal alpha 4beta 2 (h) (human), P43681
Conditions: remark: other sources report otherwise.

The target in the next assay is BZD (central).
Assay [8] concerns the target kappa (h) (KOP) (human), P41145. The note with it: remark: other sources report otherwise.

Bridge positions count the residues as written; N and C are the ends.

N neuronal alpha 4beta 2 (h) (human), P43681, sequence (P43681 27-627, chain 1 of 2): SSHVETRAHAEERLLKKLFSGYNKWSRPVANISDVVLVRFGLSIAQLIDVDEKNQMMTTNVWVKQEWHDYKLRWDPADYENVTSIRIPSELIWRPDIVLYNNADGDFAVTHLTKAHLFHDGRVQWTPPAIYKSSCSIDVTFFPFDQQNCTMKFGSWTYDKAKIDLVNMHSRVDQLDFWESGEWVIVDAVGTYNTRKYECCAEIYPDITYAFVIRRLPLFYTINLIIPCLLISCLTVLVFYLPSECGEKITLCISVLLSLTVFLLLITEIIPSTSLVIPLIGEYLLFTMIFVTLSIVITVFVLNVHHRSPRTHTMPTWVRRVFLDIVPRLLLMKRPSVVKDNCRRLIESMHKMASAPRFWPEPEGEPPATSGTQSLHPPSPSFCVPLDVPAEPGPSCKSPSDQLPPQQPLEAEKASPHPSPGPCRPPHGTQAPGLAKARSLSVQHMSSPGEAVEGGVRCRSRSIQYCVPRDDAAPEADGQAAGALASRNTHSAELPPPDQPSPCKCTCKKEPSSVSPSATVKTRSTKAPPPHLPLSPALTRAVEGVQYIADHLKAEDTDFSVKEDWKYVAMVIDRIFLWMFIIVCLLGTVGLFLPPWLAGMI
N neuronal alpha 4beta 2 (h) (human), P43681, sequence (P17787 26-502, chain 2 of 2, further chain): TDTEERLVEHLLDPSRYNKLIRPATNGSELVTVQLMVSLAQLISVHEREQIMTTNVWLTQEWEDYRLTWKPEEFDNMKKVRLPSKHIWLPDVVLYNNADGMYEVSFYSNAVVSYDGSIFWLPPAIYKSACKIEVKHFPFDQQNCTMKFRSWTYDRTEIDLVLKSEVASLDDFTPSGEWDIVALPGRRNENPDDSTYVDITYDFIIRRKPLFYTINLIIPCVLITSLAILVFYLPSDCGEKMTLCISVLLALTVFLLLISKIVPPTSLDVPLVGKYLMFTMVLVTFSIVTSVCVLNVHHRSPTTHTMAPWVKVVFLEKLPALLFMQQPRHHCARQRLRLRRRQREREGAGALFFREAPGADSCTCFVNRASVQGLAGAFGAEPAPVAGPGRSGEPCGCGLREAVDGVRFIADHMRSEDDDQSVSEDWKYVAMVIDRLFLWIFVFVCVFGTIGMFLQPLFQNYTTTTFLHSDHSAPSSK
beta 1 (h) (human), P08588, sequence (P08588 whole entry): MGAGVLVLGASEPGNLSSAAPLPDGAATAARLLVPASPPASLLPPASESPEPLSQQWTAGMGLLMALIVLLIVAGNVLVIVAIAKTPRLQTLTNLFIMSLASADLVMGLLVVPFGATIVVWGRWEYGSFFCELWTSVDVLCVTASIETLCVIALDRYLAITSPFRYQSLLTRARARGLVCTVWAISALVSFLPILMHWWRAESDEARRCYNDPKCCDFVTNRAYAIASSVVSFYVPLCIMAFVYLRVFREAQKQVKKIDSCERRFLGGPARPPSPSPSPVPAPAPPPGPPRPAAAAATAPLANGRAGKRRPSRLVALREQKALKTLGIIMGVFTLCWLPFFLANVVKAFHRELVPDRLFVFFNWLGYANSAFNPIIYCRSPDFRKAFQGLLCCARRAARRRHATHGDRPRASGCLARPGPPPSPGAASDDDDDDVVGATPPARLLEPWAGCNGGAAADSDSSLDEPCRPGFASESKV
V1a (h) (human), P37288, sequence (P37288 whole entry): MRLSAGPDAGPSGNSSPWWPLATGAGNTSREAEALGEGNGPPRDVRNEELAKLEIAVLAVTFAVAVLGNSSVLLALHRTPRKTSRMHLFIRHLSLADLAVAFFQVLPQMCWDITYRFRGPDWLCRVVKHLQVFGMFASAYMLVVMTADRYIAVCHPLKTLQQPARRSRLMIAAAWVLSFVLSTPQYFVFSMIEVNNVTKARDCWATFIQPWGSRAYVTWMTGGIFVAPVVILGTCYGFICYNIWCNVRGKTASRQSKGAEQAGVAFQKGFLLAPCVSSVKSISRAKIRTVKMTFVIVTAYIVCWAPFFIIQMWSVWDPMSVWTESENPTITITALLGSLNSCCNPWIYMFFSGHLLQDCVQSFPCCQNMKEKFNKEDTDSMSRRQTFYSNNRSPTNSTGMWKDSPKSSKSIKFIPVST
kappa (h) (KOP) (human), P41145, sequence (P41145 whole entry): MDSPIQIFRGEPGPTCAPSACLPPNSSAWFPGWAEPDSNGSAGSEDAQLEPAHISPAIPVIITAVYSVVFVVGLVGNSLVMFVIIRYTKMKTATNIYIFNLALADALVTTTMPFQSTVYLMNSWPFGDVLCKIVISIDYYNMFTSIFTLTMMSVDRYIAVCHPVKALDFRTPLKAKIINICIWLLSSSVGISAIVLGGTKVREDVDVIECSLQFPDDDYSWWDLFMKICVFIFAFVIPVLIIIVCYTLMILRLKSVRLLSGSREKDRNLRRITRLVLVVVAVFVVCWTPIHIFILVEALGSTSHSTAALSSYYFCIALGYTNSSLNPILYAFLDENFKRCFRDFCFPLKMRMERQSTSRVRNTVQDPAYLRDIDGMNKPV

B1: Hex-[Cys(tMeBn(DOTA-AET))-Pro-Pro-Thr-Gln-Phe-Cys]-OH (peptide)
peptide: Hex-CPPTQFC-OH
modifications: bridge 1-7; not fully specified (bridges); printed as Hex-[Cys(tMeBn(DOTA-AET))-Pro-Pro-Thr-Gln-Phe-Cys]-OH
For B1, the % Inhibition of Specific Binding in [1] is -13%; in the assay with CB1 (h) (human), P21554, -7%; with V1a (h) (human), P37288, 1%; with CB2 (h) (human), P34972, -5%; in [2], 16%; with D2S (h) (human), P14416, -7%. Moreover, the % Inhibition of Specific Binding in [3] was -5%; in assay [4] it was 1%; in assay [5], -10%; in [6], 4%; in assay [7] it was -2%; with BZD (central), 5%. Moreover, the % Inhibition of Specific Binding in [8] amounted to 10%.

B2: Hex-[Cys(tMeBn(DOTA-PP))-Pro-Pro-Thr-Gln-Phe-Cys]-Asp-NH2 (peptide)
peptide: Hex-CPPTQFCD-NH2
modifications: bridge 1-7; not fully specified (bridges); printed as Hex-[Cys(tMeBn(DOTA-PP))-Pro-Pro-Thr-Gln-Phe-Cys]-Asp-NH2
Consider B2, for which the % Inhibition of Specific Binding in assay [1] stood at 4%; with CB1 (h) (human), P21554, 5%; with V1a (h) (human), P37288, 16%; in the assay with CB2 (h) (human), P34972, 2%; in assay [2], 24%; with D2S (h) (human), P14416, 15%. The % Inhibition of Specific Binding in [3] was -3%; in assay [4], 0%; in assay [5] it was 2%; in assay [6], -2%; in [7] it was -8%; with BZD (central), -9%. Further, in assay [8], the % Inhibition of Specific Binding turned out to be 7%.
